Values of other authors in PMC10990137.

Target: IGF2R domain 11 (Homo sapiens) (UniProt P11717)
Details: cited from earlier work

IGF2R domain 11 (Homo sapiens), sequence (P11717 1508-1650): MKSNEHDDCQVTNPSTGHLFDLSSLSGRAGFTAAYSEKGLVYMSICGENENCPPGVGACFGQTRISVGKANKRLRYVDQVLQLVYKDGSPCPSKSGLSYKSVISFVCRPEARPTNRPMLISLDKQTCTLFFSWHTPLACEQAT
IGF2, sequence (P01344 25-91): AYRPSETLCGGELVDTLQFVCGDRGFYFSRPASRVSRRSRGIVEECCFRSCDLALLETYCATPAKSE

Substance: IGF2 (from UniProt P01344)
- Kd: 4.5 nM
